According to patent US20030119019 (published 2003):

Legend:
[1] = biological target: GST::bov-rPrP25-242 (rPrPc) (Bos taurus, UniProt P10279 P10279:25-242); assay: EMSA; details: tags: GST fusion, insect cells/baculovirus; label: 32P
[2] = biological target: GST::bov-rPrP93-242 (rPrP27-30 + 1 octarepeat) (Bos taurus, UniProt P10279 P10279:93-242); assay: EMSA; details: tags: GST fusion, insect cells/baculovirus; label: 32P

Binder | binding result [1] | binding result [2]
Ap2 motif II (ssRNA) RNA: GGAGCUCAGCCUUCACUGCUACCUUAGAGUAGGAGCGGGACGAGGGGUUGUUGGGACGUGGGUAUGAUCCAUACAUUAGGAAGCUGGUGAGCUGGCACCACGGUCGGAUCCAC | binds | no binding
Ap1 motif I 60mer (ssRNA) RNA: GCAAUGCGUUGUGUGGGAAUUUGAGGGACGAUGGGGAAGUGGGGACGAAUGACUCAUUGC | binds | no binding
